PMC4241754

Biological target: WlbA from Thermus thermophilus (Thermus thermophilus)
Experiment: crystal structure

WlbA from Thermus thermophilus (enzyme)
stoichiometry N: 4
